# Results: patent publication US10159707B2, “Treatment of cancers with immunostimulatory HIV Tat derivative polypeptides” (PIN Pharma, Inc., priority 2013, dated 2018)
# “Also recorded” adds a separate entry of the source.
# B1: Nani-P2: Tat derivative polypeptide SEQ ID NO:3; TF SIVagmVer, cysteine-rich HIV-1, C-terminal SIVagmVer (protein)
# chain: MDPKGEEDQDVSHQDLIKQYRKPRTACNNCYCKKCCFHCYACFLRKGLGITYHAFRTRRKKIASADRIPVPQQSISIRGRDSQTTQESQKKVEEQAKANLRISRKNLGDETRGPVGAGN
# modifications: Tat derivative polypeptide
# notes: TF SIVagmVer, cysteine-rich HIV-1, C-terminal SIVagmVer
# Columns and labels:
# [1] = system: Human monocytes; assay: CD86 expression of human monocytes cultured with Tat derivative; assay type: cell-based; settings: cultured 24-48 hours; fluorescent-labeled CD86; compared with ISS (TLR) or LPS
# Procedure: Human monocytes were cultured for 24-48 hours with a Tat derivative (Nani-P2), an immunostimulatory sequence (ISS) of a toll-like receptor (TLR) (FIG. 1), or lipopolysaccharide (LPS) (FIG. 2) and the cells were then washed and stained with fluorescent-labeled CD86.
# [2] = system: 4T1 breast tumors; assay: Kaplan-Meier survival of mice bearing 4T1 breast tumors; assay type: in vivo, mouse
# Procedure: To determine whether Nani-P2 treatment could extend survival in addition to shrinking primary tumors in mice, treatment protocols using various dosing schedules and routes (SC, IV or IT) of administration of 40 ng Nani-P2 were performed. Cohorts of ten mice per group were followed for length of survival, as assessed by use of the Kaplan-Meier product limit method. As per Columbia University Medical Center Animal Facility regulations, each mouse was euthanized at a mean tumor diameter of approximately 15 mm, or earlier if the mouse became moribund, making one of these two outcomes the defining criteria for fatality.
# [3] = system: 4T1 cells; assay: Repeated dosing of Nani-P2 and cyclophosphamide in 4T1 tumor-bearing mice; assay type: in vivo, mouse
# Procedure: Four groups of 10 BALB/c mice were implanted with 1×10^4 4 T1 cells SC into the mammary fat pad. Treatment was initiated when tumor diameters reached 4-5 mm, on day 10. Control mice were injected IV with PBS at 3 days intervals, while alternating treatment mice received 3 doses of drug every 3 days in rotating 10 day cycles. Tumor burden (tumor size mm^3) was calculated using a standard formula. CY (cyclophosphamide alone) mice were injected IP weekly with 80 mg/kg per mouse beginning on day 10. Cy/Nani-P2 (cyclophosphamide first followed by Nani-P2) mice were first injected IP with cyclophosphamide (80 mg/kg) at 3 days intervals for three doses starting at day 10 and then injected IV with Nani-P2 (40 ng) at 3 days intervals for three doses in rotation. The cycle of 3 doses of CY followed by 3 doses of Nani-P2 was repeated until day 50. Nani-P2/CY (Nani-P2 first followed by cyclophosphamide) mice were first injected IV with Nani-P2 (40 ng) at 3 day intervals for 3 doses starting on day 10 and then injected i.p. with cyclophosphamide at 3 day intervals in rotation. The cycle of 3 doses of Nani-P2 followed by 3 doses of CY was repeated until day 50.
# [4] = system: PD-L1; assay: IHC staining of primary 4T1 breast tumors for PD-L1; assay type: in vivo, mouse; settings: therapy initiated 7 days after inoculation, resected Day 29/30
# Procedure: (§1) Female BALB/c mice were inoculated in the mammary fat pad with syngeneic and highly metastatic 4T1 breast cancer cells to model Stage IV human breast cancer. Nani-P2 immunotherapy was initiated 7 days after tumor cell inoculation. Tumors were assessed by caliper measurements throughout the study and resected on Day 29/30. Immunohistochemical staining (IHC) for PD-L1 and CD8 was performed on formalin-fixed, paraffin embedded specimens of primary 4T1 tumors.
# [5] = system: tumor infiltrating CD8+ CTL; assay: IHC staining of primary 4T1 breast tumors for CD8; assay type: in vivo, mouse; settings: therapy initiated 7 days after inoculation; resected Day 29/30; listed as PIN-2
# Procedure: as §1
# [6] = Nani-P2 alternating with cyclophosphamide
molecule,measurement,setting,value
B1,expression of CD86,[1],higher expression of CD86 than either ISS (TLR) or LPS
same,"survival, intratumoral administration","[2]; 40 ng IT, three weekly cycles, tumors established fourteen days",slightly inferior to SC administration
same,survival at day 47,"[2]; 40 ng IV, three weekly cycles, tumors established fourteen days, p<0.005",60%
same,treated mice still alive at day 48,"[2]; 40 ng SC, 4 doses over 21 days from tumor implant, p<0.001",35%
same,survival at day 47,"[2]; 40 ng SC, three weekly cycles, tumors established fourteen days, p<0.05",20%
same,survival versus control mice,[2]; 4T1 model,increased survival compared with control mice
same,"tumor growth inhibition and survival benefits, extension past the last dosing","[2]; established 4T1 tumors, treated intravenously",at least 36 days
same,survival versus controls at day 42,[2]; four doses 40 ng SC from day 0,statistically significant better survival over controls
same,"survival benefit versus control, IV","[2]; three weekly doses 40 ng IV, therapy delayed until day 13/14, day 47",very highly statistically significant benefit to survival; also recorded: highly statistically significant
same,"survival benefit versus control, SC","[2]; three weekly doses 40 ng SC into draining lymph nodes, therapy delayed until day 13, day 47",statistically significant
same,mice in partial remission at day 50,[3]; [6],9/10
same,mice in total remission at day 50,[3]; [6],3/10
same,survival benefit versus weekly cyclophosphamide,"[3]; Nani-P2 bolus treatment alternating with cyclophosphamide, p=0.0001",highly statistically significant
same,PD-L1 expression in primary 4T1 tumors versus controls,[4],reduced
same,PD-L1 expression in primary 4T1 tumors versus controls,[4]; listed as PIN-2,reduced PD-L1 presence near the tumor edge
same,tumor infiltrating CD8+ CTL versus PBS control,[5],infiltrating CD8+ CTL advancing around tumor edge; also recorded: significant increase in the population of tumor infiltrating CD8+ CTL
